Patent US20150197559A1 (University of California, published 2015)
Substitutions are numbered along the chain they refer to.

How the values were obtained:
[1] = biological target: BoNT/B4 (Clostridium botulinum); assay: flow cytometry, yeast-displayed scFv, soluble toxin
[2] = biological target: BoNT/B2 (Clostridium botulinum); assay: as above
[3] = biological target: T1, BoNT/B1 (Clostridium botulinum, UniProt P10844 2-1291); assay: as above
T1 sequence: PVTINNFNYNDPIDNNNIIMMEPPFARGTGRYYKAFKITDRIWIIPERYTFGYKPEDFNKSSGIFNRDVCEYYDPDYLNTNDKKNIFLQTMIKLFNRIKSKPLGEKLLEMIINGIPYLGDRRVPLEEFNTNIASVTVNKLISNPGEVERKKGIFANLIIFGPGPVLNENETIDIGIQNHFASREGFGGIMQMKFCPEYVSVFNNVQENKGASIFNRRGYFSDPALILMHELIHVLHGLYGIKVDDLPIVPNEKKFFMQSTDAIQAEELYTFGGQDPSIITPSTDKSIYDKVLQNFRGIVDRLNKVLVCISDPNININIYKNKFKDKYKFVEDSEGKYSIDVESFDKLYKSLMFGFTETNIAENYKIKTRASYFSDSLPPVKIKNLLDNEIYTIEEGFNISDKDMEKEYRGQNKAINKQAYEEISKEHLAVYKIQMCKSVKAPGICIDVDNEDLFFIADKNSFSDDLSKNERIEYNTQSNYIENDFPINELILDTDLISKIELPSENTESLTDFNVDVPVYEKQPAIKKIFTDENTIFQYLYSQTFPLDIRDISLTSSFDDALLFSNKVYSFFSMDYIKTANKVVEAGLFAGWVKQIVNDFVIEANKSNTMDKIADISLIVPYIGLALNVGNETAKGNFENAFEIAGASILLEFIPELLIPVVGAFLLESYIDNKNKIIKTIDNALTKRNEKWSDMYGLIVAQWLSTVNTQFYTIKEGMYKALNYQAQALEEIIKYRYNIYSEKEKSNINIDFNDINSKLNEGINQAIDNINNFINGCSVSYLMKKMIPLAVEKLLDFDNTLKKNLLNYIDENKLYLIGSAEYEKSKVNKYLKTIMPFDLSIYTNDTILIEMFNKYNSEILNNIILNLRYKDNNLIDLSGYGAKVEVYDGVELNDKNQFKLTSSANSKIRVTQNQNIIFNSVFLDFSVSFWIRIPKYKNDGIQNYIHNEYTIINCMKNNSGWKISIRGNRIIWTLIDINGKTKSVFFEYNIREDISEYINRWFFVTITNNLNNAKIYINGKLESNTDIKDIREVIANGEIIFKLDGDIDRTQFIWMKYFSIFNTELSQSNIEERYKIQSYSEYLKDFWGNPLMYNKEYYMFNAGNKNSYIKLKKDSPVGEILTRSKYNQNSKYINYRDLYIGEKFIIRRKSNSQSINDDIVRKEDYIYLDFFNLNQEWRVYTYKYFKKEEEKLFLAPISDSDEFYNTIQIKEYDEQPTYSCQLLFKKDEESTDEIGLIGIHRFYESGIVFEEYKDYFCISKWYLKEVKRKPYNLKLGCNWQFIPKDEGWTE

[4] = biological target: BoNT/B3 (Clostridium botulinum); assay: as above
[5] = biological target: T1, BoNT/B1; assay: flow cytometry, yeast-displayed Fab, soluble toxin
[6] = biological target: T1, BoNT/B1; assay: yeast-displayed Fab against parental B11 scFv, flow cytometry
[7] = biological target: T1, BoNT/B1; assay: KinExA flow fluorimetry, IgG in solution
[8] = biological target: T1, BoNT/B1
[9] = biological target: T1, BoNT/B1; assay: flow cytometry, yeast-displayed Fab against yeast-displayed scFv
[10] = biological target: T1, BoNT/B1; assay: flow cytometry, yeast-displayed parental scFv
[11] = biological target: T1, BoNT/B1; assay: flow cytometry, yeast-displayed scFv, soluble toxin; remark: listed apart in the source
[12] = biological target: T2, BoNT/A1 (Hall hyper) (Clostridium botulinum, UniProt P0DPI0 2-1296); assay: KinExA flow fluorimetry, IgG in solution
[13] = biological target: T2, BoNT/A1 (Hall hyper); assay: flow cytometry, yeast-displayed Fab against yeast-displayed scFv
[14] = biological target: T2, BoNT/A1 (Hall hyper); assay: flow cytometry, yeast-displayed Fab, soluble toxin
[15] = biological target: T2, BoNT/A1 (Hall hyper); assay: flow cytometry, yeast-displayed scFv, soluble BoNT/A1
[16] = biological target: T2, BoNT/A1 (Hall hyper); assay: flow cytometry, yeast-displayed scFv, soluble toxin
[17] = biological target: T2, BoNT/A1 (Hall hyper); assay: as above; remark: listed apart in the source
[18] = biological target: T2, BoNT/A1 (Hall hyper)
[19] = biological target: T1, BoNT/B1; assay: yeast-displayed Fab against parental B6 scFv, flow cytometry
[20] = biological target: T1, BoNT/B1; assay: flow cytometry, yeast-displayed Fab, soluble toxin; remark: listed apart in the source

B1: 2B29 scFv (scFv, V domains shown)
VH: QVQLQESGPGLVKPSETLSLTCSVSGGSINSGTYYWTWIRQHPGKGLEWIGYIYYSGTTYYNPSLKSRVSMSVDTSKNLFSLKMNSVTAADTALYYCARGNPQYDTSGSYTGLYFDFWGQGTLVTVSS
VL: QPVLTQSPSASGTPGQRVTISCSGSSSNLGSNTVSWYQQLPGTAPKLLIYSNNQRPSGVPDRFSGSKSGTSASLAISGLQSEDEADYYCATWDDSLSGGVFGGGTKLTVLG
Work on B1 yielded a Kd [1] of 1.29 nM, a Kd [2] of 1.02 nM and a Kd [3] of 1.11 nM. For the same binder, the Kd [4] was 1.61 nM.

B2: B11E8 Fab (Fab, V domains shown)
VH: EVQLVQSGGGVVQPGRSLRLSCAASGFIFRTYGMHWVRQAPGKGLEWVAFVSSDGNNKFYSDSVKGRFTISRDNAKNTLYLQMNSLETEDTAMYYCAKDRYPIDCSGGSCFSYGMDVWGQGTTVTVSS
VL: EIVLTQSPATLSVSPGERATLSCRASQSVSKFLAWYQQKRGQAPRLLIYGASTRATGIPARFSGSGSGTEFALTISSLQSEDFADYYCQQYDNWPITFGQGTRLEIKR
With B2 the Kd [5] was 0.081 nM and the “KD wild type/KD matured” value [6] was 32 fold.

B3: B11E8 IgG (antibody, V domains shown)
VH: B2 VH
VL: B2 VL
For B3, the Kd [7] was 0.00659 nM and the “fold increase in affinity, IgG against yeast displayed Fab” value [8] was 4.85 fold.

B4: B11 Fab (Fab, V domains shown)
VH: B2 VH with E1Q, V5L, G8A, S71P, M93V
VL: DIVMTQSPSTLSASVGDRVTVTCRASQSINSWLAWYQQKPGKAPKLLIYEASSLESGVPSRFSGSGSGTEFTLTISSLQPDDFATYYCQQYDSYWLTFGGGTKVEIKR
In the case of B4, the “fold lower affinity than the scFv” value [9] is reported as 2.5 fold.

B5: B11 scFv (scFv)
scFv: QVQLLQSAGGVVQPGRSLRLSCAASGFIFRTYGMHWVRQAPGKGLEWVAFVSSDGNNKFYSDSVKGRFTIPRDNAKNTLYLQMNSLETEDTAVYYCAKDRYPIDCSGGSCFSYGMDVWGQGTTVTVSSGGGGSGGGGSGGGGSDIVMTQSPSTLSASVGDRVTVTCRASQSINSWLAWYQQKPGKAPKLLIYEASSLESGVPSRFSGSGSGTEFTLTISSLQPDDFATYYCQQYDSYWLTFGGGTKVEIK
B5 was tested, and the Kd [10] was 2.62 nM and the Kd [11] was 2.62 nM.

B6: 1B11 scFv (scFv)
chain: B5 scFv
B6 gave a Kd [3] of 2.6 nM and a Kd [4] of 4.43 nM.

B7: ING1 IgG (antibody, V domains shown)
VH: QVQLQQSGGGLVQPGGSLRLSCAASGFTFSNYAMTWVRQAPGKGLEWVSSISVGGSDTYYADSVKGRFTVSRDNSKNTLLLQMNSLRAEDTAVYYCAKVRTKYCSSLSCFAGFDSWGQGTRVTVSS
VL: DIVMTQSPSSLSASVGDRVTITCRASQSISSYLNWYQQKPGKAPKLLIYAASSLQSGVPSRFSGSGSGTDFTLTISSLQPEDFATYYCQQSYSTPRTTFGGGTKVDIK
B7 gave a Kd [12] of 0.314 nM.

B8: ING1 Fab (Fab, V domains shown)
VH: B7 VH
VL: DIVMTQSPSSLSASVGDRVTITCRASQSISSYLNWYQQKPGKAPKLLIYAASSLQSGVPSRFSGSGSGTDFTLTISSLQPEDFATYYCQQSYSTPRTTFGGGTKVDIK
For B8, the “fold lower affinity than the scFv” value [13] was 3.9 fold and the Kd [14] was 20.6 nM.

B9: B6 scFv (scFv)
scFv: QVQLVQSGAEVKKPGESLVISCKASGDKDTFTSFWIAWVRQMPGKGLEWMGIIYAGDSDTRYSPSFQGHVNISVDRSTNTAYLQWSSLKASDTAMYYCARHDSRYKYFYFGMDVWGQGTTVTVSSGGGGSGGGGSGGGGSDVVMTQSPSSLSASVGDRITITCQAGQDISNFLNWYQQKPGKAPKLLIRDASNLETGVPSRFSGGGSGTHFTFTISSLHPEDIATYFCQQYDNLPYTFGQGTKLEIK
In the case of B9, the Kd [10] is reported as 2.71 nM and the Kd [11] is reported as 2.71 nM.

B10: ING2 scFv (scFv, V domains shown)
VH: QVQLVQSGAEVKKPGSSVKVSCKASGDTFNRNAIAWVRQAPGQGLEWMGRIIPNLRTTHYAQKFQGRVAITADKHTNTVFMELSSLRSEDTAVYYCARDPYYYSYMDVWGKGTTVTVSS
VL: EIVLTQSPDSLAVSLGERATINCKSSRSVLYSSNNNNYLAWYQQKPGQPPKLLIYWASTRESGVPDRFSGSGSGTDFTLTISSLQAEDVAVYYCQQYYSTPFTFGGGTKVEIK
B10 was tested, and the Kd [15] was 0.25 nM, the Kd [16] was 0.24 nM and the Kd [17] was 0.238 nM.

B11: ING2 IgG (antibody, V domains shown)
VH: B10 VH
VL: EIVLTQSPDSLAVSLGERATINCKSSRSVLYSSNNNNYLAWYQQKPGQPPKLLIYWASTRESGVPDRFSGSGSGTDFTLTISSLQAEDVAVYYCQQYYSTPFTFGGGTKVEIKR
B11 was tested, and the Kd [12] was 0.00957 nM and the “fold increase in affinity, IgG against parental scFv” value [18] was 1.5 to 25 fold.

B12: B6.1 Fab (Fab, V domains shown)
VH: QVQLVQSGAEVKKPGESLVISCKASGDKDTFTSFWIAWVRQMPGKGLEWMGIIYAGDSDTRYSPSFQGHVNISVDRSTNTAYLQWSSLKASDTAMYYCARHDSRYKYFYFGMDVWGQGTTVTVSS
VL: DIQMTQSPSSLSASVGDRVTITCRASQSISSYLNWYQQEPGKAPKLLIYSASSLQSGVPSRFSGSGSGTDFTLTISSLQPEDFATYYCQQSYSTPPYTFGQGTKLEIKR
With B12 the Kd [5] was 0.286 nM, the “KD wild type/KD matured” value [19] was 9 fold and the Kd [20] was 0.286 nM.

B13: B6.1 IgG (antibody, V domains shown)
VH: B12 VH
VL: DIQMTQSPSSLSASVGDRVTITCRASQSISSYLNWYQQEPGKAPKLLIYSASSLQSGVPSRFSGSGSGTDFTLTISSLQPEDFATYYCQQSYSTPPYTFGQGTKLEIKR
B13 was tested, and the Kd [7] was 0.00682 nM and the “fold increase in affinity, IgG against yeast displayed Fab” value [8] was 42 fold.

B14: 2B27 scFv (scFv, V domains shown)
VH: EVQLQESGPGLVKPSETLSVTCAVSGGSISSSNYSWAWIRQPPGKGLEWIGTMYYSGSTHYHPSLKSRVTISVDTSKSQLSLKLSSVTAADTAVYYCARRRLLGPSPYYFDYWGQGTLVTVSS
VL: QSVVTQPPSVSGAPGQRVTISCSGSSSNIGAGYDVHWYQQLPGTAPKLLIYGNNNRPSGVPDRFSGSKSGTSASLAITGLQAEDEADYYCQSYDSSLSAYVFGTGTKLTVLG
With B14 the Kd [1] was 0.77 nM, the Kd [2] was 0.56 nM and the Kd [3] was 1.9 nM. For the same binder, the Kd [4] was 2.32 nM.
